Results reported in IntAct's records for PubMed 21808041.

B1: Non-structural protein 1 (Influenza B virus (strain B/Lee/1940)), P03502 (parent)
chain: MADNMTTTQIEVGPGATNATINFEAGILECYERFSWQRALDYPGQDRLHRLKRKLESRIKTHNKSEPENKRMSLEERKAIGVKMMKVLLFMDPSAGIEGFEPYCVKNPSTSKCPNYDWTDYPPTPGKYLDDIEEEPENVDHPIEVVLRDMNNKDARQKIKDEVNTQKEGKFRLTIKRDIRNVLSLRVLVNGTFLKHPNGDKSLSTLHRLNAYDQNGGLVAKLVATDDRTVEDEKDGHRILNSLFERFDEGHSKPIRAAETAVGVLSQFGQEHRLSPEEGDN

Variants of: B1
Conditions: with isg15_human ISG15, P05161
Sequence of isg15_human ISG15, P05161 (P05161 whole entry): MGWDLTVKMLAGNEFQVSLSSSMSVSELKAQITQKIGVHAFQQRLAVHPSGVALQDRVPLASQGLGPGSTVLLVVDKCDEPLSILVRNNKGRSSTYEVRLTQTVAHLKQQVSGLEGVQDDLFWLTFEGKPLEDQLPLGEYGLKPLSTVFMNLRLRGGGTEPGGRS

Variant	effect of a mutation on the interaction
M91A;F100A	decreasing interaction strength
W36A;Q37A	disrupting interaction strength
